Reference: the supplement of paper PMC12042874
± gives the uncertainty stated by the source.

Assay: amyloid nucleation score (Sup35N fusion, yeast selection) (log enrichment); library NNK1; higher = more nucleation; inactive = no reads after selection
Method in brief: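 The nucleation score, computed with DiMSum, is the log enrichment of output over input reads, centred on the mode score of non-aggregating sequences. Sequences with under 100 input reads were dropped. Reads were generated by Illumina sequencing of plasmid inserts from psi-negative yeast with Sup35N fused to peptides of 20 random codons, induced with 100 μM copper sulfate for 24 hours and grown 7 days at 30°C on medium lacking adenine and uracil.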
With VSTQIRRDGYDYAAVGHC the amyloid nucleation score was 0.009 ± 0.8. In the case of YNLYRH, the amyloid nucleation score is reported as 0.406 ± 0.51. VLSWWTTNPSVMENTCCPWS gave an amyloid nucleation score of 2.09 ± 0.32. Work on DMNLRVDLYMKFEWSGLVER yielded an amyloid nucleation score of 0.109 ± 0.36. With GRTAQAVRGGRAVVYAGLKL the amyloid nucleation score was -0.157 ± 0.36. YHWVMTASVCSPGELNYRSN gave an amyloid nucleation score of 0.363 ± 0.78. ANFAIFWSFYRGWCSFKIQS gave an amyloid nucleation score of 0.871 ± 0.5. Work on FLNNLAGWGYPCFTGVYANA yielded an amyloid nucleation score of -0.195 ± 0.39. With RYVCTESESVDLSQMAVIMS the amyloid nucleation score was 1.13 ± 0.4. With CFMETYSWKVRYTLFHKLST the amyloid nucleation score was 0.552 ± 0.79. Substance MWRKHR has an amyloid nucleation score of -0.543 ± 0.65. With QLSLGHNFLCYVMSMRVREV the amyloid nucleation score was “inactive”. Work on ASSVSMFFYIWFLDAHVGYL yielded an amyloid nucleation score of 0.364 ± 0.33. CSCGLSYGLYFE gave an amyloid nucleation score of 0.786 ± 0.92. For ISFCDGRSCIDLIAVRCFRG, the amyloid nucleation score was -0.909 ± 0.26. Work on YVSVVCLFVPDKFRNVTDL yielded an amyloid nucleation score of 6.87 ± 0.073. KTRHMREDGQCVYKHEMERM gave an amyloid nucleation score of 0.577 ± 0.19. SGDSSYIMLLVVAPMYCQLP gave an amyloid nucleation score of -0.148 ± 0.83. With DRPTRLSVIFGRPP the amyloid nucleation score was “inactive”. In the case of RFLSSALRARRYSRPVPLVM, the amyloid nucleation score is reported as 1.13 ± 0.76. ECCWLRVTRLGLWDDVVHSE gave an amyloid nucleation score of -0.163 ± 0.33. ELCAQYVIFSFASSRSYDSY gave an amyloid nucleation score of 0.579 ± 0.28. Substance SYEVFEIISNCLEY has an amyloid nucleation score of -0.321 ± 0.35. VKLAVREVTSEMPREKLTVA showed an amyloid nucleation score of 0.236 ± 0.26. In the case of HVGQAVSSCDSNLE, the amyloid nucleation score is reported as -0.365 ± 0.59. For FFLWGRW, the amyloid nucleation score was -0.341 ± 0.43. For MPTLNYIVKCSREVTGGILD, the amyloid nucleation score was “inactive”. QPNNGVPQIMDTV gave an amyloid nucleation score of 0.184 ± 0.43. WRFEYWFRGIHYCIYNYFC showed an amyloid nucleation score of -0.011 ± 0.89. With DFNSISDAKNCWSYLM the amyloid nucleation score was 1.25 ± 0.13. PWCQVRHSSYRASWSSVVVN gave an amyloid nucleation score of -0.254 ± 0.48. Substance DFGRFTGSG has an amyloid nucleation score of -0.824 ± 2.1. In the case of LFFLLLNHRAVVVLLWCHFT, the amyloid nucleation score is reported as -1.19 ± 0.91. For ELTNR, the amyloid nucleation score was 0.044 ± 0.39. With FLVQNRRISEVIELWALLS the amyloid nucleation score was -1.19 ± 2.7. In the case of GNLRNMLMTYSSSVGNKLIF, the amyloid nucleation score is reported as -0.344 ± 0.57. Work on IIIEVSQTDTV yielded an amyloid nucleation score of -0.292 ± 0.79. With TEQGMWHSLAGGR the amyloid nucleation score was “inactive”. VGSLGM gave an amyloid nucleation score of -0.221 ± 0.37. RYMLHDLIFPVSVVMRVSYE showed an amyloid nucleation score of 0.92 ± 0.22. Work on STMFYLIFCQCTSIYANLYQ yielded an amyloid nucleation score of 0.063 ± 0.41. With CTREVLWGCHCNSSASNLFS the amyloid nucleation score was -0.202 ± 0.61. Work on LCITQKYRFSLHNLHQPTDW yielded an amyloid nucleation score of 1.93 ± 0.45. In the case of CIDYYLCLNMYRTGWYLRLC, the amyloid nucleation score is reported as “inactive”. RGDLCGSRIFLWFALPVN showed an amyloid nucleation score of -0.726 ± 0.62. For RMAWMEGRPGDRMSRYGTSC, the amyloid nucleation score was “inactive”. With SCTYSIFCDNISRTLGH the amyloid nucleation score was -0.287 ± 0.26. In the case of SWWLICYYVSWYFSD, the amyloid nucleation score is reported as -1.69 ± 1.1. In the case of RVLCCRYN, the amyloid nucleation score is reported as 0.19 ± 0.51. Substance LFREQW has an amyloid nucleation score of 0.228 ± 0.85. With NSGVVRLFPYFMYRTAWLKS the amyloid nucleation score was 0.224 ± 0.41. For YNVKSVCGRAPIGVMGRKWG, the amyloid nucleation score was 0.618 ± 0.52. For IQLYIYCNMWKVGGKEWRAW, the amyloid nucleation score was 5.78 ± 0.087. FLVPEVEKIFNIRVLEVRLM gave an amyloid nucleation score of -0.834 ± 0.6. KGKTNGVV gave an amyloid nucleation score of -0.44 ± 0.48. With FISCCARIFTTCGIAD the amyloid nucleation score was 1.19 ± 0.14. With SRTYFESRDFEEYRAMRPSL the amyloid nucleation score was “inactive”. In the case of NLINVFTLKWFDITL, the amyloid nucleation score is reported as 5.686 ± 0.053. With SKDYVDL the amyloid nucleation score was “inactive”. In the case of IRFFKCLTCVSDCGN, the amyloid nucleation score is reported as “inactive”. Work on FLTSECSTSSLHS yielded an amyloid nucleation score of 0.56 ± 0.85. For TSFFFHEQHHFKGNKFNFEV, the amyloid nucleation score was 3.5 ± 0.18. CDERNNAFLGVFGSS gave an amyloid nucleation score of -0.288 ± 0.47. QIFVWAFPPSGVSGHVWSRD gave an amyloid nucleation score of 6.497 ± 0.049. Work on DWNVQGQWFHQC yielded an amyloid nucleation score of 0.677 ± 0.72. In the case of NVVSYFHMAFGWCFNLW, the amyloid nucleation score is reported as 1.94 ± 0.26. DWLVRGVFPYVGMLDIALTY gave an amyloid nucleation score of 0.356 ± 0.72. In the case of NSNCELGKVHFAV, the amyloid nucleation score is reported as 0.501 ± 0.35. Substance YESCRVHVSIIYPPASGHRA has an amyloid nucleation score of 2.9 ± 0.12. Substance YFAPFRGTSWFTRSCN has an amyloid nucleation score of -0.011 ± 0.79. Substance YRLRQPLPSERSLMEHSCGV has an amyloid nucleation score of 0.761 ± 0.56. For SMVRYTMDSKVKKRSSVVVG, the amyloid nucleation score was 3.56 ± 0.18. MLLSWMNAMVFTRRVHLAEP gave an amyloid nucleation score of -0.469 ± 1.2. QLKGSSWYYENRVGRSGRGV showed an amyloid nucleation score of 0.698 ± 0.49. IYVWKTQ gave an amyloid nucleation score of -0.242 ± 0.5. YSIDLIPYRDYGNKTCHGIM gave an amyloid nucleation score of 2.27 ± 0.081. For VSGDPNMRLCAISIATGFVF, the amyloid nucleation score was -0.468 ± 0.63. In the case of HGYSNNVARYWA, the amyloid nucleation score is reported as 0.372 ± 1.4. In the case of CDGLLYELRSVEWGKGKLNG, the amyloid nucleation score is reported as 0.438 ± 0.38. LLVNFSTSRLSLYMFIMIFS gave an amyloid nucleation score of -0.779 ± 0.39. Work on TFVVN yielded an amyloid nucleation score of 0.677 ± 0.3. FDFACCTTGIGPFSCDLGSG showed an amyloid nucleation score of 7.694 ± 0.052. FNLSVKAY gave an amyloid nucleation score of -0.581 ± 1.6. Substance SLYRDYVRFGWLVRCGNGHD has an amyloid nucleation score of 0.078 ± 0.23. LFIVPRRGARRYRVVITKSV showed an amyloid nucleation score of 0.003 ± 0.46. In the case of SLVALINNCSVSTKMGSLPY, the amyloid nucleation score is reported as 0.87 ± 0.22. KRCFVLWLHRLWVGVNVFAD gave an amyloid nucleation score of 0.237 ± 0.25. With KYVCGLTDTVIRGMLKVIRA the amyloid nucleation score was 0.559 ± 0.27. GLGWHFTL gave an amyloid nucleation score of -0.407 ± 0.28. Substance GDNACLLSSIEDALDSVQVL has an amyloid nucleation score of 0.99 ± 0.67. Work on QLLPISGKVWAVISSGLG yielded an amyloid nucleation score of -0.029 ± 0.32. With SRFWKRVHAYTAVISEMYSA the amyloid nucleation score was -0.132 ± 0.52. With WCRRWFLLYWVCAETKFGSG the amyloid nucleation score was -0.367 ± 0.52. Substance MTSCDWTTTKSSDVAPDWRM has an amyloid nucleation score of 0.424 ± 0.52. With VFLISY the amyloid nucleation score was 0.199 ± 0.42. With TSSWQVPVNAPEVN the amyloid nucleation score was “inactive”. Work on FVVRCDYVVLTLDSGDRSYV yielded an amyloid nucleation score of 3.37 ± 0.071. In the case of FVLLELVSVVRVLHYDGIWD, the amyloid nucleation score is reported as 0.079 ± 0.51. For KNGRWAWFTSRAHCFGYNFT, the amyloid nucleation score was -1.14 ± 0.82. EGNSDCLWVGYGASMTRWVR gave an amyloid nucleation score of 0.258 ± 0.88. KRCSFWQTRTVELSFGHPVL gave an amyloid nucleation score of -1.23 ± 2.7. KRPSSFVEFFMLWRSKAR showed an amyloid nucleation score of 0.947 ± 0.43. Substance DGGAFAGRS has an amyloid nucleation score of -1.06 ± 0.81. Work on LKNGSDSILDARVYLGG yielded an amyloid nucleation score of -0.221 ± 0.51. Substance KGGSFVGLSTVQYLLASYAL has an amyloid nucleation score of -0.153 ± 1.3. In the case of YSNWTVSTSFSNHERHVFLA, the amyloid nucleation score is reported as 0.839 ± 0.39. For ITYYVNFDFCQGSLARVWLC, the amyloid nucleation score was 5.01 ± 0.059. Work on CLLLARVVALVGPPSRTSGV yielded an amyloid nucleation score of -0.121 ± 0.4. In the case of LFPIDSVNGTDWMTRMRDKI, the amyloid nucleation score is reported as “inactive”. With SGDIKSFWMERCFCLVTHGK the amyloid nucleation score was -0.115 ± 0.57. NLLWNTVIIFDFVRNLWTWS gave an amyloid nucleation score of 0.813 ± 0.72. MLVRG showed an amyloid nucleation score of -0.351 ± 0.49. With GMDLQVMSHCASIHNNS the amyloid nucleation score was -0.199 ± 0.37. FLIIIRPISRRTCRVCFKQT showed an amyloid nucleation score of -0.246 ± 0.44. YGSLIHMIRNEGLNIGGKSA gave an amyloid nucleation score of -0.51 ± 0.4. YNAARLFPYVNVWGII showed an amyloid nucleation score of -0.305 ± 1.3. Substance FRLMPEYVATYMLSLRMCQC has an amyloid nucleation score of -0.565 ± 1.2. In the case of IYFKIVILLRSSFFL, the amyloid nucleation score is reported as “inactive”. TFTVAEQVALE showed an amyloid nucleation score of 0.415 ± 0.47. With YNVLCYFLNRFWMGYWYLLS the amyloid nucleation score was 1.5 ± 0.5. For VFNCWCLTEFFVMYGIVCQK, the amyloid nucleation score was 4.52 ± 0.1. With PELYSVDHFNGYAPNYCRCR the amyloid nucleation score was -0.534 ± 0.43. In the case of KFIIVLILDCITIHHSVVVS, the amyloid nucleation score is reported as -0.819 ± 0.67. Work on NDTVWVVWMLKELSLYVELV yielded an amyloid nucleation score of 0.329 ± 0.53. CDWGN gave an amyloid nucleation score of 1.14 ± 0.93. Work on DAEWF yielded an amyloid nucleation score of 0.393 ± 0.27.
